From patent publication US20050202025A1

Target: FbsA on cells of S. agalactiae O90R (Streptococcus agalactiae)
Experiment: increasing fibrinogen on S. agalactiae O90R cells immobilised on microtiter wells; apparent KD from the concentration for half maximal binding

Substance: human fibrinogen (from UniProt P02671 20-629; P02675 31-491; P02679 27-437) (ligand)
- Kd: 25 nM
